Assay results: patent publication US20220177594A1 (ZOETIS SERVICES, published 2022)
Where two headings read alike, the source gives them in different places.

T1: feline OSMR on feline Fcwf-4 cells (feline, UniProt A0ABI8A843 28-960)
T1 sequence: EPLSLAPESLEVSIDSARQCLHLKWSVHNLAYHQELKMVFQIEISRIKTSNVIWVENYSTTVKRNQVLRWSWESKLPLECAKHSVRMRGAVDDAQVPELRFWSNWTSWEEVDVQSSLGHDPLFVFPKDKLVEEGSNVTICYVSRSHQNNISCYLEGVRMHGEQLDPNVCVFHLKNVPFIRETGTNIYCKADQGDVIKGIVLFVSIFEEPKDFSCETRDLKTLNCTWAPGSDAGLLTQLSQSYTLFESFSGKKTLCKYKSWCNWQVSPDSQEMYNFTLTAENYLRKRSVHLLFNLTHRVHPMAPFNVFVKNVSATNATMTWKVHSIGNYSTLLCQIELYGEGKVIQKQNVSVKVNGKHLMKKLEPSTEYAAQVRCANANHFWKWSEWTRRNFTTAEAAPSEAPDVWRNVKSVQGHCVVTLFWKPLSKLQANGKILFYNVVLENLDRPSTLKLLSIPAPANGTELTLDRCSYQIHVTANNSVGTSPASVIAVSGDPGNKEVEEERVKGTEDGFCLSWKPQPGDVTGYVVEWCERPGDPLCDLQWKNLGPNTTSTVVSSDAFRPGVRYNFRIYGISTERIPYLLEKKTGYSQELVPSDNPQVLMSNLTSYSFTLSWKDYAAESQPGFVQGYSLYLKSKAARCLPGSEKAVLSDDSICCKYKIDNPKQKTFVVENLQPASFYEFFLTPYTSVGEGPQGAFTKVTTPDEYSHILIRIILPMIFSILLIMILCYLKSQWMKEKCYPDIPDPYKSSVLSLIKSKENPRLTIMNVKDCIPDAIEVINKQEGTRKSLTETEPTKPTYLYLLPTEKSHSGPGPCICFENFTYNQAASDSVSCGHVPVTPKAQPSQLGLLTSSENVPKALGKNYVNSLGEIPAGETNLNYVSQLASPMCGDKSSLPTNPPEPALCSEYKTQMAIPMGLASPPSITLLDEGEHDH

T2: canine OSMR on canine cells (canine, UniProt A0A8I3MI11 28-967)
T2 sequence: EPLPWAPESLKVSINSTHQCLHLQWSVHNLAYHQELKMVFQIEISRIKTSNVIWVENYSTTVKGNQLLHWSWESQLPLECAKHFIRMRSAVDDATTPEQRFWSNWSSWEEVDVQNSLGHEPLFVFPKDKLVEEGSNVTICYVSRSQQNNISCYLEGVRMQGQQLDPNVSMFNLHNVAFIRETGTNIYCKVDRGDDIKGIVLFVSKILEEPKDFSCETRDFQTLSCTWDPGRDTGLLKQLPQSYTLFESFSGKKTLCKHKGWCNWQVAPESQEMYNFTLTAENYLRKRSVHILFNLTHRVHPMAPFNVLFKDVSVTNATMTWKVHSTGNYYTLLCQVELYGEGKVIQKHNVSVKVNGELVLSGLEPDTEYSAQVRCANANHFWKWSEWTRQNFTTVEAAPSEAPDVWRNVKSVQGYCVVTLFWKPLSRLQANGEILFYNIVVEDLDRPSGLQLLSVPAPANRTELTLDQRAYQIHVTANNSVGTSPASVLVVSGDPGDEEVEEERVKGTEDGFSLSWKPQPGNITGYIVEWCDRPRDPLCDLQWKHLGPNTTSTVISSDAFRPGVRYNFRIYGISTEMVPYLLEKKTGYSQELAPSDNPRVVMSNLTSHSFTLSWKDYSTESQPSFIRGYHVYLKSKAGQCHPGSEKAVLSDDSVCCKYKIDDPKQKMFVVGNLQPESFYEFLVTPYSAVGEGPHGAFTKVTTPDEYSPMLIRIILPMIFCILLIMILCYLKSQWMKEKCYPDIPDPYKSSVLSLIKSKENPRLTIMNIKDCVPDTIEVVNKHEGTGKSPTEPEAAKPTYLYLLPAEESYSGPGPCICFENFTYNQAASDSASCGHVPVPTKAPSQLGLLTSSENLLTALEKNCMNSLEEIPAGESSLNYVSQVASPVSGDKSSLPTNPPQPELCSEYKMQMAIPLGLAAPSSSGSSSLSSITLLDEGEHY

T3: Human_OSMR (human, UniProt Q99650 28-739)
T3 construct: Bought protein; also called hOSMR
T3 sequence: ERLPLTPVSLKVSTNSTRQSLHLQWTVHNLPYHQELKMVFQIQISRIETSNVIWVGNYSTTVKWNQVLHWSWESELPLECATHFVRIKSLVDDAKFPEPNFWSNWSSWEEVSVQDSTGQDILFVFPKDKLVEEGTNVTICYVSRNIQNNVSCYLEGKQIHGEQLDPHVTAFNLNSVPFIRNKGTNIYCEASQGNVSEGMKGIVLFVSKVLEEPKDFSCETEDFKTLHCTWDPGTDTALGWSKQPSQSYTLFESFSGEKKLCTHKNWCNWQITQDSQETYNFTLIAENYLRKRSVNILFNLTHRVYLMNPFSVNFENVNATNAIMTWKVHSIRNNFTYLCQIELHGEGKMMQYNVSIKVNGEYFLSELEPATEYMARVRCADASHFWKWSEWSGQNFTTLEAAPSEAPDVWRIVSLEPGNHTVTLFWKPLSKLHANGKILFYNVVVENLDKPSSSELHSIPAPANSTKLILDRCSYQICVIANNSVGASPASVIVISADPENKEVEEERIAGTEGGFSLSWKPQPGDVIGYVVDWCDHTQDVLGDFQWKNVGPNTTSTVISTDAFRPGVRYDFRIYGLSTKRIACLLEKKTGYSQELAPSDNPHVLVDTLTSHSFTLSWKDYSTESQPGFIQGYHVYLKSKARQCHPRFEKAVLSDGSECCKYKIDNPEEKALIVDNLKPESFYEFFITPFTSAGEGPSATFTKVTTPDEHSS


Experiments:
[1] = target: T1, feline OSMR on feline Fcwf-4 cells; assay: cell-based or functional assay
[2] = target: T2, canine OSMR on canine cells; assay: cell-based or functional assay
Human_OSMR [3] = target: T3, Human_OSMR; assay: SPR Biacore, OSMR on chip
[4] = target: T1, feline OSMR on feline Fcwf-4 cells; assay: cell-based or functional assay; remark: listed apart in the source
[5] = target: T2, canine OSMR on canine cells; assay: cell-based or functional assay; remark: listed apart in the source
Human_OSMR [6] = target: T3, Human_OSMR; assay: SPR Biacore, OSMR on chip; remark: listed apart in the source
Procedure: The affinity with which candidate mAbs bind canine, feline, and human (SEQ ID NO: 122; Human_OSMR) (R&D Systems, Minneapolis, Minn.) OSMR was determined using surface plasmon resonance (SPR) on a Biacore system (Biacore Life Sciences (GE Healthcare), Uppsala, Sweden). To avoid affinity differences associated with differential surface preparation that can occur when immobilizing antibodies to surfaces; OSMR from each species was directly conjugated to individual surfaces. Immobilization was obtained by amine coupling 5 μg/mL OSMR using N-hydroxysuccinimide (NHS)/1-Ethyl-3-(3-dimethylaminopropyl) carbodiimide (EDC) chemistry. Chips were quenched with ethanolamine and the affinity with which all candidate mAbs bound to the immobilized OSMR was evaluated. All curves were fit to a 1:1 model. […] Results for affinity measurements are described herein.

[7] = target: T4, ANTIBODY EXPRESSION CONTROL; assay: SPR Biacore, expression control
T4 construct: also called mouse anti-canine antibody (capture reagent of the expression control ELISA)
Method in brief: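 Surface plasmon resonance with OSMR amine-coupled at 5 μg/mL via NHS/EDC, ethanolamine-quenched, and candidate mAbs flowed over as analyte. ka, kd and KD derived from 1:1 model fits.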

Row | % inh of feline IL-31 pSTAT3 signaling, feline Fcwf-4 cells [1] [% inh @ 75 µg/ml] | % inh of canine IL-31 pSTAT3 signaling, canine DH82 cells [2] [% inh @ 75 µg/ml] | binding result (Human_OSMR [3]) | % inh of feline IL-31 pSTAT3 signaling, feline Fcwf-4 cells [4] [% inh] | % inh of canine IL-31 pSTAT3 signaling, canine DH82 cells [5] [% inh] | IC50, inhibition of canine OSM pSTAT3 signaling, feline Fcwf-4 cells [1] [µg/ml] | IC50, inhibition of canine OSM pSTAT3 signaling, canine DH82 cells [2] [µg/ml] | IC50, inhibition of canine OSM pSTAT3 signaling, canine DH82 cells [5] [µg/ml] | IC50, inhibition of feline IL-31 pSTAT3 signaling, feline Fcwf-4 cells [1] [µg/ml] | IC50, inhibition of canine IL-31 pSTAT3 signaling, canine DH82 cells [2] [µg/ml] | binding result (Human_OSMR [6]) | Kd [7] [nM] | koff [7] [s⁻¹] | kon [7] [M⁻¹ s⁻¹] | Binder
1 | 63 | 80 | no binding | 63 | 80 | – | – | – | – | – | – | – | – | – | Mu_09E09 (antibody, V domains shown, Mouse hybridoma IgG) VH: DVKLVESGEGLVKPGGSLKLSCAASGFTFSSYAMSWVRQTPEKRLEWVAYISSGGDYIYYADTVKGRFTISRDNARNTLYLQMSSLKSEDTAMYYCTRDPITGTFAYWGQGTLVTVSA VL: DLQMTQTTSSLSASLGDRVTISCRASQDINNYLNWYQQKPDGTVKLLIYYTSTLHSGVPSRFSGSGSGTDYSLTISNLEQEDIATYFCQQGNTLPWTFGGGTKLEIK
2 | 91 | 93 | no binding | 91 | 93 | 0.23 | 0.05 | 0.04 | – | – | – | – | – | – | Mu_10F07 (antibody, V domains shown, Mouse hybridoma IgG) VH: DVKLVESGEGLVKPGGSLKLSCAASGFTFSSYAMSWVRQTPEKRLEWVTYISSGGDYFYYADTVKGRFTISRDNARNTLYLQMSSLKSEDTAMYYCTRDPITGTFAYWGQGTLVTVSA VL: DIQMTQTTSSLSASLGDRVTISCRASQDITNYLNWYQQKPDGTVKLLIYYTSTLHSGVPSRFSGSGSGTDFSLTISNLEQEDIATYFCQQGHMLPWTFGGGTKLEIK
3 | 67 | 0 | no binding | 67 | 0 | – | > 50 | > 50 | – | – | – | – | – | – | Mu_02D09 (antibody, V domains shown, Mouse hybridoma IgG; also called mouse anti-OSMR 02D09) VH: EVQLVESGGGLVKPGGSLTLSCAASGFTFSDYGMHWLRQAPEKGLEWVAYISSGSRAVFFADTVKGRFTISRDNAKNTLFLQMTSLRSDDTAMYYCARDRYDGRGFAYWGQGTLVTVSA VL: DIVLTQSPATLSVTPGDSVSLSCRASQSISNNLHWYQQTSHESPRLLITYASQSISGIPSRFSGSGSGTDFTLSINSVETEDFGMYFCQQSNSWPLTFGAGTKLELK
4 | – | – | no binding | 90 | 87 | 0.68 | 0.27 | 0.27 | 0.42 | 0.07 | – | – | – | – | Mu_19F07 (antibody, V domains shown, Mouse hybridoma IgG) VH: EVKLVESEGGLVQPGSSMKLSCTASGFTFSDYYMAWVRQVPEKGLEWVANINYDGSSTYYLDSLKSRFIISRDNAKNILYLQMSSLKSEDTATYYCARGLTWDFDVWGTGTTVTVSS VL: DIVMTQSHKFMSPSVGDRVSITCKASQDVDTAVAWYQQKPGQSPKLLIYLASTRHTGVPDRFTGSGSGTDFTLTISNVQSEDLADYFCQQYSRFPLTFGAGTKLELK
5 | – | – | – | – | – | – | 0.26 | – | – | 0.28 | no binding | 0.082 | 2.29e-05 | 281000 | mouse: canine 19F07 chimera (antibody, V domains shown, Mouse variable domains on canine IgG constant regions; also called 19F07 (Mouse:Canine); mouse:dog chimera 19F07) VH: EVKLVESEGGLVQPGSSMKLSCTASGFTFSDYYMAWVRQVPEKGLEWVANINYDGSSTYYLDSLKSRFIISRDNAKNILYLQMSSLKSEDTATYYCARGLTWDFDVWGTGTTVTVSS VL: DIVMTQSHKFMSPSVGDRVSITCKASQDVDTAVAWYQQKPGQSPKLLIYLASTRHTGVPDRFTGSGSGTDFTLTISNVQSEDLADYFCQQYSRFPLTFGAGTKLELKR
6 | 0 | – | no binding | 0 | 72 | – | 8.64 | 0.73 | – | 5.65 | – | – | – | – | Mu_14C04 (antibody, V domains shown, Mouse hybridoma IgG) VH: EVQLQESGAELVKPGASVKISCKASGYAFSNYWMNWMKQRPGKGLEWIGQIYPGHVNTNYNGNFKDKATLTADKSSSTAYMQLSSLTSEDSAVYFCARSADNSGFVLFAYWGQGTLVTVS VL: DIVLTQSPASLAVSLGQRATISCRASKSVSTSGYSYLHWYQQKPGQPPKLLIFLASNLESGVPARFSGSGSGTDFTLNIHPVEEEDAATYYCQHSRELPLTFGAGTKLELK
